Test results from publication PMC8441438, “Dynamic regulation of mitotic ubiquitin ligase APC/C by coordinated Plx1 kinase and PP2A phosphatase action on a flexible Apc1 loop” (The EMBO Journal, 2021).

B1: Plx1-PBD WT (polo-box domain of Plx1) [Xenopus laevis] / MBP-fused Apc1-loop^500 WT fragment [Xenopus tropicalis] (parent)
chain 1: EPADCYLSEMLQQLTCLNAVKPSERALIRQEEAEDPASIPIFWISKWVDYSDKYGLGYQLCDNSVGVLFNDSTRLIMYNDGDSLQYIERNNTESYLNVRSYPTTLTKKITLLKYFRNYMSEHLLKAGANTTPREGDELARLPFLRTWFRTRSAIILHLSNGTVQINFFQDHTKIILCPLMAAVSYIDEKREFRTYKLSLIQEFGCCKELASRLRYARTMVEKLQSSKSAVAHVKASA
chain 2: GLAAPSLGMSNPMPRPSTPLESISTPAKPLNKHLAPMDEAGMLSPVPELRDSTRLHESTYLDDCTFHQFG
B2: MBP-fused Apc1-loop^500 WT fragment [Xenopus tropicalis] / Plx1 (polo-like kinase homolog in Xenopus laevis), endogenous [Xenopus laevis (endogenous in egg extracts)] (parent)
chain 1: MAQVAGKKLTVAPEAAKPPGIPGSSSAVKEIPEILVDPRTRRRYLRGRFLGKGGFAKCYEITDLESREVFAGKIVPKTMLLKPHQKDKMTMEIAIQRSLDHRHVVGFHGFFEDNDFVYVVLELCRRRSLLELHKRRKAVTEPEARYYLKQTISGCQYLHSNRVIHRDLKLGNLFLNDEMEVKIGDFGLATKVEYDGERKKTLCGTPNYIAPEVLGKKGHSFEVDIWSIGCIMYTLLVGKPPFETSCLKETYMRIKKNEYSIPKHINPVAAALIQKMLRSDPTSRPTIDDLLNDEFFTSGYIPSRLPTTCLTVPPRFSIAPSTIDQSLRKPLTAINKGQDSPLVEKQVAPAKEEEMQQPEFTEPADCYLSEMLQQLTCLNAVKPSERALIRQEEAEDPASIPIFWISKWVDYSDKYGLGYQLCDNSVGVLFNDSTRLIMYNDGDSLQYIERNNTESYLNVRSYPTTLTKKITLLKYFRNYMSEHLLKAGANTTPREGDELARLPFLRTWFRTRSAIILHLSNGTVQINFFQDHTKIILCPLMAAVSYIDEKREFRTYKLSLIQEFGCCKELASRLRYARTMVEKLQSSKSAVAHVKASA
chain 2: B1 chain 2

Variants of: B1
Assay: MBP pull-down (amylose beads), SDS-PAGE with Coomassie brilliant blue staining, quantified as bound Plx1-PBD per Apc1-loop500
Details: with MBP-fused Apc1-loop^500 WT fragment [Xenopus tropicalis]; input 10 µg Plx1-PBD, 15 min; Apc1-loop500 pre-incubated in anaphase extracts with non-degradable cyclin B, 23°C, 1 h; parent: 1.1; read off a plot

Row | response [A.U.] | Variant
1 | 0.07 | chain 1 H171A K173M

Same assay, conditions: with MBP-fused Apc1-loop^500 WT fragment [Xenopus tropicalis]; input 15 µg Plx1-PBD, 15 min; Apc1-loop500 pre-incubated in anaphase extracts with non-degradable cyclin B, 23°C, 1 h; parent: 1.4; read off a plot

Row | response [A.U.] | Variant
2 | 0.09 | chain 1 H171A K173M

Variants of: B1
Assay: MBP pull-down (amylose beads), SDS-PAGE with Coomassie brilliant blue staining, quantified
Details: anaphase extracts supplemented with non-degradable cyclin B, 23°C, 1 h, then 10 µg WT Plx1-PBD for 15 min, parent: 1, read off a plot

Row | ratio to parent | Variant
3 | 0.03 | chain 2 T18A T25A

Variants of: B2
Assay: MBP pull-down (amylose beads) from Xenopus egg anaphase extracts, immunoblot with Plx1 antibody, quantified
Details: anaphase extracts supplemented with non-degradable cyclin B, 23°C, 1 h, parent: 1, read off a plot

Row | ratio to parent [A.U.] | Variant
4 | 0.5 | chain 2 S44A
5 | 0.51 | chain 2 T18A T25A
6 | 0.92 | chain 2 T18A
7 | 0.61 | chain 2 T25A
